Measurements as given in the supplement of paper PMC6757056.
± gives the standard deviation of the averaged measurements.

B1: library; a variant is named by its letters at N, in order (parent)
chain: GCUGUCACCGGUGCUUGGUACGUUAUAUUCAGCCGGUCUGAUGAGUCUNNNNNNAGACGAAACAGC

What was measured:
(6R,S)-folinic acid [1] = variants of: B1; experiment: FACS-Seq fitted mean relative fluorescence mCherry/BFP without ligand (log10 relative fluorescence); HEK293T overexpressing SLC46A1; higher = higher reporter protein expression; conditions: without (6R,S)-folinic acid; ligand present: no
In short: (§1)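 Sorting into 6 bins by mCherry/BFP followed 48 h of incubation with or without ligand. The cells were enriched HEK293T libraries lentivirally bearing an mCherry reporter with the ribozyme switch and an EF1α-BFP marker, and bin genomic DNA was PCR-amplified, barcoded and sequenced on MiSeq. Fluorescence is the fitted normal mean of the bin counts. Means were fitted on log10(mCherry/BFP), scaled to five spiked-in control ribozymes.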

(6R,S)-folinic acid [2] = variants of: B1; experiment: normalized RNA/DNA level without ligand (relative to sTRSVctl = 100) (log10 (% of sTRSVctl)); HEK293T overexpressing SLC46A1; higher = less ribozyme self-cleavage, higher mRNA level; conditions: without (6R,S)-folinic acid; ligand present: no
In short: (§2)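 HEK293T cells received ligand, where used, 1 h before being transfected with 4 µg per 6-well well of library plasmids encoding reporter-linked ribozyme switches. After 72 h, RNA was extracted with EDTA and sequenced. RNA level was derived from RNA reads per DNA read, normalized to a spiked-in non-cleaving sequence or the top sequences, then scaled and log-transformed. Values were ×100 then log10, the top set was 25 sequences, and the minimum was 100 DNA reads.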

(6R,S)-folinic acid [3] = variants of: B1; experiment: FACS-Seq fitted mean relative fluorescence mCherry/BFP with ligand (log10 relative fluorescence); HEK293T overexpressing SLC46A1; ligand concentration (+) FACS-Seq: 6 mM; higher = higher reporter protein expression; conditions: with (6R,S)-folinic acid; ligand present: yes
In short: as §1

(6R,S)-folinic acid [4] = variants of: B1; experiment: normalized RNA/DNA level with ligand (relative to sTRSVctl = 100) (log10 (% of sTRSVctl)); HEK293T overexpressing SLC46A1; ligand concentration (+) RNA-Seq: 6 mM; higher = less ribozyme self-cleavage, higher mRNA level; conditions: with (6R,S)-folinic acid; ligand present: yes
In short: as §2

| Variant | FACS-Seq fitted mean (log10) ((6R,S)-folinic acid [1]) | normalized RNA/DNA level without ligand (log10) ((6R,S)-folinic acid [2]) | FACS-Seq fitted mean (log10) ((6R,S)-folinic acid [3]) | normalized RNA/DNA level with ligand (log10) ((6R,S)-folinic acid [4]) |
| --- | --- | --- | --- | --- |
| GCGCUA | 0.652 ± 0.016 | 2.067 ± 0.018 | 0.697 ± 0.34 | 2.05 ± 0.021 |
| CGAAUA | 0.314 ± 0.065 | 1.954 ± 0.0097 | 0.45 ± 0.14 | 1.978 ± 0.018 |
| ACGGGA | 0.247 ± 0.026 | 1.941 ± 0.0036 | 0.471 ± 0.17 | 2.01 ± 0.038 |
| UCCUUG | 0.0329 ± 0.028 | 1.85 ± 0.021 | 0.189 ± 0.026 | 1.99 ± 0.033 |
| GGACCG | 0.438 ± 0.24 | 2.065 ± 0.0084 | 0.0255 ± 0.12 | 2.02 ± 0.031 |
| ACGAAG | 0.365 ± 0.028 | 1.834 ± 0.0094 | 0.953 ± 0.2 | 1.993 ± 0.017 |
| ACGAAA | 0.141 ± 0.013 | 1.956 ± 0.0063 | -0.0169 ± 0.14 | 2 ± 0.04 |
| GCCUUA | 0.12 ± 0.15 | 1.98 ± 0.027 | -0.0974 ± 0.14 | 1.99 ± 0.037 |
| UGACCA | 0.061 ± 0.12 | 2.042 ± 0.0098 | -0.0235 ± 0.23 | 2.05 ± 0.039 |
| CCGAAG | -0.309 ± 0.021 | 1.869 ± 0.0079 | -0.882 ± 0.26 | 2 ± 0.039 |
| ACUGGG | -0.0324 ± 0.033 | 1.841 ± 0.016 | 0.115 ± 0.1 | 2.0256 ± 0.0015 |
| ACGUUA | 0.21 ± 0.027 | 1.991 ± 0.011 | 0.285 ± 0.14 | 2.02 ± 0.027 |
| ACGUUU | -0.149 ± 0.046 | 2.004 ± 0.015 | -0.00103 ± 0.41 | 2.025 ± 0.015 |
| UGACAA | -0.327 ± 0.12 | 1.952 ± 0.0062 | -0.72 ± 0.24 | 2.024 ± 0.018 |
| UGACAG | 0.327 ± 0.16 | 1.82 ± 0.022 | 0.34 ± 0.028 | 1.971 ± 0.0094 |
| AGACGC | 0.389 ± 0.13 | 2.018 ± 0.016 | 0.336 ± 0.11 | 2.01 ± 0.042 |
| AGACGA | -0.49 ± 0.11 | 1.99 ± 0.015 | -0.617 ± 0.18 | 2.02 ± 0.03 |
| CCUUUA | 0.459 ± 0.027 | 2.019 ± 0.018 | 0.136 ± 0.057 | 2.06 ± 0.053 |
| CCCUCA | 0.596 ± 0.099 | 2.0625 ± 0.0014 | 0.512 ± 0.32 | 2.04 ± 0.038 |
| GCUCGU | 0.5943 ± 0.0012 | 2.0305 ± 0.0014 | 0.851 ± 0.091 | 2.02 ± 0.037 |
| UCGCAU | 0.644 ± 0.045 | 1.97 ± 0.018 | 0.661 ± 0.25 | 2 ± 0.042 |
| GGAAGA | 0.0463 ± 0.13 | 1.993 ± 0.0044 | 0.239 ± 0.2 | 2.04 ± 0.031 |
| UCUGGA | 0.542 ± 0.018 | 1.99 ± 0.012 | -0.0265 ± 0.23 | 2.05 ± 0.027 |
| UCUGGG | 0.501 ± 0.098 | 1.836 ± 0.012 | 0.524 ± 0.01 | 1.98 ± 0.027 |

| Variant | FACS-Seq fitted mean (log10) ((6R,S)-folinic acid [1]) | normalized RNA/DNA level without ligand (log10) ((6R,S)-folinic acid [2]) | FACS-Seq fitted mean (log10) ((6R,S)-folinic acid [3]) | normalized RNA/DNA level with ligand (log10) ((6R,S)-folinic acid [4]) |
| --- | --- | --- | --- | --- |
| AGACCU | 0.618 ± 0.15 | 2.02 ± 0.041 | 0.641 ± 0.01 | 2.05 ± 0.027 |
| AGACCA | 0.1 ± 0.31 | 2.05 ± 0.0039 | 0.262 ± 0.072 | 2.03 ± 0.028 |
| ACCUAU | 0.349 ± 0.089 | 2.019 ± 0.018 | 0.644 ± 0.022 | 2.05 ± 0.033 |
| UCGGUG | -0.084 ± 0.14 | 1.817 ± 0.0011 | 0.096 ± 0.055 | 2 ± 0.03 |
| UCGGUU | 0.629 ± 0.068 | 2.033 ± 0.0021 | 0.695 ± 0.2 | 2.06 ± 0.023 |
| UCGUAA | -0.407 ± 0.028 | 1.937 ± 0.0094 | -0.393 ± 0.27 | 2.007 ± 0.0097 |
| UCGUAC | 0.373 ± 0.053 | 2.032 ± 0.019 | 0.343 ± 0.14 | 2.049 ± 0.0073 |
| CGAACC | 0.4 ± 0.15 | 2.059 ± 0.013 | 0.315 ± 0.15 | 2.02 ± 0.054 |
| CGAACA | 0.317 ± 0.096 | 1.981 ± 0.0064 | 0.446 ± 0.21 | 1.985 ± 0.0071 |
| GCUGUU | 0.356 ± 0.02 | 2.043 ± 0.0085 | 0.145 ± 0.17 | 2.04 ± 0.042 |
| GGAAAG | 0.253 ± 0.061 | 1.955 ± 0.0027 | 0.123 ± 0.011 | 2.02 ± 0.041 |
| GGAAAC | 0.359 ± 0.026 | 2.021 ± 0.0084 | 0.243 ± 0.22 | 2.0107 ± 0.00078 |
| GGAAAA | 0.526 ± 0.051 | 1.983 ± 0.011 | 0.455 ± 0.15 | 2.04 ± 0.041 |
| CCUGCU | -0.139 ± 0.054 | 2.06 ± 0.013 | -0.135 ± 0.0061 | 2.08 ± 0.04 |
| CCUACA | -0.221 ± 0.03 | 2.02 ± 0.044 | -0.392 ± 0.29 | 2.04 ± 0.043 |
| UCGGAG | 0.429 ± 0.14 | 1.74 ± 0.019 | 0.837 ± 0.14 | 1.972 ± 0.0045 |
| UCGGAA | 0.527 ± 0.079 | 1.897 ± 0.0085 | 0.24 ± 0.14 | 1.99 ± 0.037 |
| UCGGAU | 0.33 ± 0.067 | 1.946 ± 0.019 | 0.517 ± 0.14 | 2.01 ± 0.024 |
| GCUGAU | 0.277 ± 0.044 | 2.036 ± 0.0025 | 0.23 ± 0.0065 | 2.014 ± 0.019 |
| GCUGAA | -0.084 ± 0.057 | 2.021 ± 0.02 | -0.25 ± 0.14 | 2.03 ± 0.028 |
| ACGGAU | 0.261 ± 0.068 | 1.936 ± 0.017 | 0.344 ± 0.042 | 2.01 ± 0.037 |
| CGAAAG | -0.0838 ± 0.12 | 1.9719 ± 0.00015 | 0.0563 ± 0.36 | 1.98 ± 0.027 |
| CGAAAA | 0.189 ± 0.032 | 1.955 ± 0.014 | 0.493 ± 0.17 | 1.98 ± 0.022 |
| AGACAG | 0.659 ± 0.017 | 1.941 ± 0.0083 | 0.854 ± 0.36 | 2.01 ± 0.026 |

| Variant | FACS-Seq fitted mean (log10) ((6R,S)-folinic acid [1]) | normalized RNA/DNA level without ligand (log10) ((6R,S)-folinic acid [2]) | FACS-Seq fitted mean (log10) ((6R,S)-folinic acid [3]) | normalized RNA/DNA level with ligand (log10) ((6R,S)-folinic acid [4]) |
| --- | --- | --- | --- | --- |
| GCUAUA | 0.337 ± 0.086 | 1.985 ± 0.014 | 0.51 ± 0.19 | 2.019 ± 0.0034 |
| UGAAGU | 0.167 ± 0.1 | 1.907 ± 0.015 | 0.347 ± 0.17 | 2.01 ± 0.036 |
| UGAAGG | 0.12 ± 0.034 | 1.645 ± 0.012 | 0.569 ± 0.24 | 1.96 ± 0.042 |
| UGAAGA | 0.139 ± 0.053 | 1.877 ± 0.0079 | 0.513 ± 0.11 | 1.98 ± 0.027 |
| ACUAAG | 0.437 ± 0.1 | 1.924 ± 0.018 | 0.751 ± 0.14 | 2 ± 0.037 |
| ACUAAC | 0.18 ± 0.0049 | 2 ± 0.017 | 0.412 ± 0.046 | 2.01 ± 0.045 |
| ACUAAA | 0.538 ± 0.18 | 1.9903 ± 0.0016 | 0.483 ± 0.097 | 2.022 ± 0.018 |
| UCGAGU | 0.379 ± 0.014 | 1.966 ± 0.014 | 0.483 ± 0.24 | 2.0199 ± 0.0014 |
| UCUAAA | 0.394 ± 0.046 | 1.977 ± 0.0068 | 0.483 ± 0.022 | 2.018 ± 0.017 |
| ACGUAA | 0.69 ± 0.24 | 1.962 ± 0.0024 | 0.689 ± 0.3 | 2.006 ± 0.0065 |
| ACGUAG | 0.217 ± 0.032 | 1.912 ± 0.0036 | 0.598 ± 0.16 | 1.9927 ± 0.0014 |
| UGAAAU | 0.196 ± 0.11 | 1.81 ± 0.027 | 0.516 ± 0.39 | 1.97 ± 0.027 |
| UGAAAC | 0.4232 ± 0.0017 | 1.946 ± 0.0065 | 0.578 ± 0.21 | 2 ± 0.042 |
| UGAAAG | 0.184 ± 0.14 | 1.8081 ± 0.0016 | 0.436 ± 0.3 | 1.98 ± 0.031 |
| UGAAAA | 0.648 ± 0.13 | 1.98 ± 0.021 | 0.692 ± 0.22 | 1.992 ± 0.019 |
| GCGCAC | 0.472 ± 0.12 | 1.99 ± 0.007 | 0.311 ± 0.17 | 2.01 ± 0.04 |
| UCUGUU | 0.459 ± 0.039 | 2.02 ± 0.03 | 0.679 ± 0.29 | 2.0647 ± 0.00045 |
| UGAACG | 0.174 ± 0.17 | 1.83 ± 0.021 | 0.296 ± 0.022 | 2 ± 0.035 |
| UGAACU | 0.534 ± 0.077 | 1.988 ± 0.016 | 0.35 ± 0.14 | 2 ± 0.032 |
| ACUGUG | 0.5433 ± 0.0045 | 1.853 ± 0.017 | 0.593 ± 0.12 | 2 ± 0.022 |
| UCGGCC | 0.562 ± 0.15 | 2.098 ± 0.0059 | 0.476 ± 0.036 | 2.043 ± 0.011 |
| UCGGCU | 0.288 ± 0.09 | 2.08 ± 0.024 | 0.415 ± 0.31 | 2.06 ± 0.053 |
| ACUUUA | 0.348 ± 0.12 | 1.978 ± 0.014 | 0.366 ± 0.15 | 2.01 ± 0.028 |
